Measurements as given in patent US6417159B1 (Queen's University at Kingston, priority 1996, dated 2002).

Tests used:
[1] = Precipitation out of aqueous solution; type: physicochemical
[2] = tested on: PC12 cells; experiment: Acid phosphatase assay of cell survival, PC12 cells; type: cell-based, rat; conditions: PC12 (high-TrkA), serum-free conditions
Description: This is a colorimetric assay which measures the lysosomal enzyme acid phosphatase to determine cell number (Connolly et al., 1986) modified by Ueda et al. (1994) for use with cultured neuronal cells. Medium was removed gently from PC12 or PC12^nnr5 cells cultured in 96 well plates and well were washed once with 200 μl PBS. Then 100 μl of buffer containing 0.1M sodium acetate pH 5.5, 0.1% TRITON™ X-100, and 10 mM p-nitrophenyl phosphate (Sigma 104 phosphatase substrate) was added to each well. Plates were placed in a 37° C., 5% CO2 incubator for 3 hours. The reaction was stopped by the addition of 10 μl/well of 1N sodium hydroxide and the colour development measured at 405 nm using a microplate reader (Titertek). The first column on each plate contained no cells (buffer only) and was used as a blank. The relationship between cell number and enzyme activity was linear over the range 1000 to 15,000 cells.
To exclude the possibility that the effects of R3 on neurite growth in the experiments described above were indirect and mediated by an influence on cell survival, PC12 and PC12^nnr5 cells were exposed to serum free conditions in the absence and presences of NGF, and in the absence and presence of R3. […] Nor was there any difference in NGF-mediated survival whether R3 exposure occurred before or at the same time as NGF exposure. […]

[3] = tested on: PC12 cells; experiment: Uptake of [125I]NGF into PC12 cells; type: cell-based, rat; conditions: 20 pM or 0.2 nM [125I]NGF; saturating R3
Description: PC12 cells were removed from culture dishes with CMF, washed, and incubated at a concentration of 10^6 per ml in Hepes-Krebs-Ringer (HKR) buffer buffer with 1 mg·ml^−1 BSA for 90 minutes at 37° C. in the presence of 40 pM [^125I]NGF in the absence and presence of excess unlabeled NGF, and in the absence and presence of R3 peptide. Aliquots of 100 μl were removed in replicates and mircocentrifuged at 10,000×g for 1 minute. Supernatants were removed, tips were cut from the microcentrifuge tube and counted in a gamma counter. Specific binding was defined as the difference between binding of the ligand in the absence and presence of unlabeled NGF, and fractional specific binding in the absence and presence of R3 peptide was compared. Studies of [^125I]NGF uptake into PC12 and PC12^nnr5 cells were carried out in the absence and presence of 10 μM R3 peptide and following a 24-hour exposure of PC12 cultures to 10 μM R3 peptide. Cells were eposed to 20 pM or 0.2 nM [^125I]NGF for periods of time up to 240 minutes (steady state) at 37° C. The cells were then briefly acid-washed as described by Bernd and Greene (1984), and aliquots were prepared for gamma counting as described. NGF was radioiodinated as described in Sutter et al. (1979b).

[4] = molecular target: T1, TrkA (Rattus norvegicus, UniProt P35739); experiment: [125I]NGF affinity cross-linking to TrkA; type: binding; conditions: PC12 cells, 50 μM R3
T1 construct: endogenous in cells; host or cells: PC12
T1 sequence (P35739 33-799): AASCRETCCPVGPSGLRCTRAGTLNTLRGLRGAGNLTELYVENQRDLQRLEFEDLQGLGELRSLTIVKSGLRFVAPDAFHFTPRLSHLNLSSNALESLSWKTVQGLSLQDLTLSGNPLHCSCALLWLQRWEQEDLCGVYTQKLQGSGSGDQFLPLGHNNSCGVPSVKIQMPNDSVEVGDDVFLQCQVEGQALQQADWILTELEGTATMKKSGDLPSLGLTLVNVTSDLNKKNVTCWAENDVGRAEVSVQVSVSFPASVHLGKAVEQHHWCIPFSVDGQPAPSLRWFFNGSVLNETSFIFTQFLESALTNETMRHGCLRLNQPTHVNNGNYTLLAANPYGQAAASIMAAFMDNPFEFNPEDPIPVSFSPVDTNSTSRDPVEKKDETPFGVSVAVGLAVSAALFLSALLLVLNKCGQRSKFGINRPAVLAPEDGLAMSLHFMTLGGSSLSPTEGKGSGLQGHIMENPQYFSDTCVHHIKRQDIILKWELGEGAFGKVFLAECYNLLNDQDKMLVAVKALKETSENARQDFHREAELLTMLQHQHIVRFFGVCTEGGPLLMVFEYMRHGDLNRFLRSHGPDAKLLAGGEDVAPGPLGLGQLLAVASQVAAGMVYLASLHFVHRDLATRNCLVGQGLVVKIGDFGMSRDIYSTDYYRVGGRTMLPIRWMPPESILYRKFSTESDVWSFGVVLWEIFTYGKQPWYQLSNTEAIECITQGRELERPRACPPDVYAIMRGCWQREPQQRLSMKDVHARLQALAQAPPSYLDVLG
Description: FIG. 7A illustrates the influence of peptide R3 on affinity cross-linking of TrkA and p75^NTR. Intact PC12 cells were treated with 50 μM R3 for 24 h (preinc.) in medium, harvested with CMF medium, and suspended at a concentration of 10^6·ml^−1 (or 10^7·m^−1 for immunoprecipitation studies) in HKR buffer. Cells were then incubated in the presence or absence of R3 (coinc.) for 15 min at 37° C. and cooled in ice. Cross-linking was performed by incubating cells with 1 nM [^125I]-NGF for 2 h at 4° C., adding EDC ([…]) and NHS (2 mM) or BS^3 (0.4 mM) as indicated, and incubating for 30 min at 25° C. Cells were washed three times in HKR buffer and the pellet dissolved in reducing SDS sample buffer or in lysis buffer (1% NP-40, 10% glycerol, 1 mM PMSF, 10 μg-ml^−1 aprotinin, 1 μg/ml leupeptin, […] o-vanadate in TBS) for immunoprecipitation (lanes 4 and 8). For immunoprecipitation, the cellular debris was removed by centrifugation and the supernatant incubated with 1 μg anti-p75^NTR monoclonal Ab 192 (Cedarlane Laboratories Ltd.) or 1 μg anti-TrkA polyclonal Ab (a gift from Dr. W. Mobley, University of California, San Francisco) for 4 h at 4° C. Immunoprecipates were isolated by incubating with 50 μl of a 50% solution of protein A-SEPHAROSE™ (anti-Trk) or goat anti-mouse agarose (Ab 192) for 2 h at 4° C. Precipitates were washed 3 times in lysis buffer and dissolved in sample buffer. […]

In the case of LDALLAALRRIQR [R3], the “Concentration at which the peptide tended to precipitate out of aqueous solution with time” value [1] is reported as no less than 50 µM, the “Influence on NGF-mediated cell survival, in words” value [2] is reported as “no influence on NGF-mediated survival” and the “Rates of [125I]NGF uptake, in words” value [3] is reported as “not influenced”. For the same sequence, the “Affinity cross-linking of [125I]NGF to TrkA monomers or homodimers, in words” value [4] was “not affected”.
